The values below come from patent publication US20100240066A1 (MCGILL UNIVERSITY, published 2010).

Assay [1] deals with T1, VE-cadherin/Fc chimeric protein (UniProt P33151 48-593).
T1 construct: Bought from R&D Systems; also called vascular endothelial (VE)-cadherin/Fc chimeric protein; not shown: Fc part not described
T1 sequence (looked up): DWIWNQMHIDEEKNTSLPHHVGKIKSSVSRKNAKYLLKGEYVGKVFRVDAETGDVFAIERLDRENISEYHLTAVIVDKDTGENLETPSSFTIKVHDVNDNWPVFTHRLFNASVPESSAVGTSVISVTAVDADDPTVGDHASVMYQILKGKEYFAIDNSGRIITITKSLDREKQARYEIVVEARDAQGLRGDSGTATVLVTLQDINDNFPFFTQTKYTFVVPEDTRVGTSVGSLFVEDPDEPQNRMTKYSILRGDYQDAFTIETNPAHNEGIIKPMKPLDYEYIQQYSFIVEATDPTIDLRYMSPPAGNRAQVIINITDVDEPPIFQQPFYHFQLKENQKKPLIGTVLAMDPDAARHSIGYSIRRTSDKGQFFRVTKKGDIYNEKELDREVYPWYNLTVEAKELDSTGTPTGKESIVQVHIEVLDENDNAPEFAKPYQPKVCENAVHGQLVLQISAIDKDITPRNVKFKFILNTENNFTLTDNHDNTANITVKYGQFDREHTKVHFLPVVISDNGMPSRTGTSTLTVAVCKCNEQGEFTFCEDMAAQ
Briefly: phage ELISA, in the absence or presence of calcium. The procedure: (§1) The phage clones shown to bind to the N-cadherin/Fc chimeric protein by ELISA were also evaluated for their ability to bind to E-cadherin/Fc and VE-cadherin/Fc chimeric proteins. The phage clones shown to bind to the E-cadherin/Fc chimeric protein by ELISA were also evaluated for their ability to bind to N-cadherin/Fc and VE-cadherin/Fc chimeric proteins. The same ELISA protocol described in the previous section was used to perform this evaluation with the exception that the wells were coated with either 100 ng N-cadherin/Fc, E-cadherin/Fc or VE-cadherin/Fc chimeric protein (R&D Systems, Minneapolis, Minn.).
A general note: An ELISA detects its analyte on a solid surface through an enzyme-linked reagent.

The target of assay [2] is T2, E-cadherin/Fc chimeric protein (human, UniProt P12830 155-707).
T2 construct: range 155-707; Bought from R&D Systems; also called E-cad/Fc; human E-cadherin/Fc chimeric protein; not shown: Fc region of human IgG1
T2 sequence (looked up): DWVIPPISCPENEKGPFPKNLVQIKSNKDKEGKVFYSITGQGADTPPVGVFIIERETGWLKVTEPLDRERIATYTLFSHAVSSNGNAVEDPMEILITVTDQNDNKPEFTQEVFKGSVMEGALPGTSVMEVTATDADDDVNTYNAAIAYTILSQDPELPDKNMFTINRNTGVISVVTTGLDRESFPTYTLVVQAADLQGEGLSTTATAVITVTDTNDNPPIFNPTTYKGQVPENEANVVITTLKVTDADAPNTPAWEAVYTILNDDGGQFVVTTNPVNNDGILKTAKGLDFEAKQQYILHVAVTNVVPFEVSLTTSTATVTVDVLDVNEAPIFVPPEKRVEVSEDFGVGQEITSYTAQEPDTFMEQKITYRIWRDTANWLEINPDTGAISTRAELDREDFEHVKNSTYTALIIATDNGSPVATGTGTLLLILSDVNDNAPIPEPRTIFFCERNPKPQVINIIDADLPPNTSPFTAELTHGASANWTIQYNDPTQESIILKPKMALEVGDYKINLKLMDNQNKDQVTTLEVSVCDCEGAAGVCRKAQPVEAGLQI
Briefly: phage ELISA, in the absence or presence of calcium. The protocol: as §1

In assay [3] the target is T3, N-cadherin/Fc chimeric protein (human, UniProt P19022 160-724).
T3 construct: range 160-724; Bought from R&D Systems; also called N-cad/Fc; human N-cadherin/Fc chimeric protein; not shown: Fc region of human IgG1
T3 sequence (looked up): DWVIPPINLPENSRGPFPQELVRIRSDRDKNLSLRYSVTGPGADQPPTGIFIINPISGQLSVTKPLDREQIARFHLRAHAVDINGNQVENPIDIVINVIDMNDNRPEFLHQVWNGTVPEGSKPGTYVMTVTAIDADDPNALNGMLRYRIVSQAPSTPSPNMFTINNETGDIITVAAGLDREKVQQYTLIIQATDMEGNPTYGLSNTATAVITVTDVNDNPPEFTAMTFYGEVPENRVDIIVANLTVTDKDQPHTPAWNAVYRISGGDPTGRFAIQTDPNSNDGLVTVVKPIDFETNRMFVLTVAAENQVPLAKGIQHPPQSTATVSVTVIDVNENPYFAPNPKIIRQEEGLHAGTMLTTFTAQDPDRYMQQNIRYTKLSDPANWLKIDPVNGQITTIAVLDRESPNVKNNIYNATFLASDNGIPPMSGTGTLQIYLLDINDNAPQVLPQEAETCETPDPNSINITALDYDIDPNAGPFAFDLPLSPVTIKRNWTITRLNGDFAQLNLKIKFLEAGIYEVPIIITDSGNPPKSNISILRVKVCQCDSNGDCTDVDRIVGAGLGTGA
Briefly: phage ELISA, 1.2 mM calcium. The procedure:
The binding of each clone to the cadherin/Fc chimeric proteins was confirmed by ELISA. Wells of ProBind microtiter plates (Falcon) were coated with either N-cadherin/Fc or E-cadherin/Fc chimeric protein (100 ng/well) or human IgG1 (which contains the Fc fragment) (100 ng/well). After blocking the nonspecific sites with TBS containing 3% BSA and 1.2 mM CaCl₂ for 1 h at 37° C., phage clones (10⁹ pfu) diluted in TBST containing 3% BSA and 1.2 mM CaCl₂ (100 μl/well). Non-coated wells were also used to exclude any phage that bound to the plastic surface. After 1 h incubation at room temperature, wells were washed 3 times with TBST containing 3% BSA and 1.2 mM CaCl₂. M13 phage without any insert were used to control the non-specific binding of the phage itself to the target. Monoclonal anti-M13 antibody conjugated to horseradish peroxidase (Amersham Biosciences, Piscataway, N.J.) was diluted in TBST containing 3% BSA and 1.2 mM CaCl₂ (1:2,000) and added to each well (100 μl/well). After 1 h incubation at room temperature, wells were washed three times with TBST containing 3% BSA and 1.2 mM CaCl₂ and once with TBS containing 1.2 mM CaCl₂. Horseradish peroxidase substrate, TMB (Sigma), was added to each well (100 μl/well and after color development the reaction was stopped by addition of 100 μl 0.5 M sulphuric acid to each well. The intensity of the color was measured at 450 nm.

Where no end group is shown, it is not given here.

B1: phage clone NoCa1 (peptide)
peptide: WYVCVGAHC
modifications: not fully specified; cysteine pairing not given here; also: displayed on M13 phage pIII
notes: whole phage in the assay
For B1, the binding result was “no binding (tested: 10^9 pfu)” in assay [1], “no binding (tested: 10^9 pfu)” in assay [2] and “binds” in assay [3].

B2: phage clone NoCa11 (peptide)
peptide: WQVCVGAHC
modifications: not fully specified; cysteine pairing not given here; also: displayed on M13 phage pIII
notes: whole phage in the assay
Consider B2, for which the values for the binding result in assay [1], in assay [2] and in assay [3] were “no binding (tested: 10^9 pfu)”, “no binding (tested: 10^9 pfu)” and “binds”, respectively.
